These results are taken from the nanobody polyreactivity screen of Harvey et al. (2022).

The data set in a line: yeast display, Sf9 membrane polyspecificity reagent, FACS + sequencing; frameworks hold sequencing errors. The method in brief: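 Synthetic nanobody libraries on Saccharomyces cerevisiae BJ5465 were galactose-induced for 36–48 hours, stained 1 hour at 4 °C with 10% biotinylated, detergent-solubilized Sf9 membrane reagent and enriched on streptavidin microbeads. FACS then separated cells into low and high (top ~1%) gates by anti-HA (expression) and streptavidin (reagent binding) fluorescence. Genes were colony-PCR amplified, MiSeq 2 × 250 sequenced and CDR-length filtered. A clone's polyreactivity label is that of its gate of origin.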
On to “QVQLVESGGGLVQAGGSLRLSCAASGFTIDGYAMGGYRQAPGKERELVAAISGGGSTYYADSVKGRFTISRDNAKNTVYLQMNSLKPEDTAVYYCAAARITRGRRYDYWGQGTQVTVSS”, for which the “polyreactivity (PSR sort gate)” value is “high polyreactivity”.

Consider “QVQLVESGGGLVQAGGSLRLSCAASGRTFRGYAMGWYRQAPGKERELVAAISVTGSSTNYADSVKGRFTISRDNAKNTVYLQMNSLKPEDTAVYYCNAKRVRYSLSYDYWGQGTQVTVSS”, for which the “polyreactivity (PSR sort gate)” value was “high polyreactivity”.

For “QVQLVESGGGLVQAGGSLRLSCAASGFIFSGYAMGWYRQAPGKEREVVATISRGGSTTYYADSVKGRFTISRDNAKNTVYLQKTSLKPEETGAYYCATVGYPYRPVYIRRPYRYNSWGQGTQVTVSS”, the “polyreactivity (PSR sort gate)” value is given as “high polyreactivity”.

Take “QVQLVESGGGLVQAGGSLRLSCAASGLTFAGYAMGWYRQAPGKERELVASITTSGGSTHNADSVKGRFTISRDNEKNTVYVQMNSLKPEDTAVYYCAAECYPGDTELIGAFDYWGQGTQVTVSS”: the “polyreactivity (PSR sort gate)” value is “low polyreactivity”.

Consider “QVQLVESGGGLVQAGGSLRLSCAASEFTFLLYAMGWYRQAPGKERELVAAISRTGGSTYYADSVKGRFTISRDNAKKTVYLQMNSLNPEDTAVYYCNAAISRAWVSYYGSSSRYDYWGQGTQVTVSS”, for which the “polyreactivity (PSR sort gate)” value is “low polyreactivity”.

Regarding “QVQLVESGGCLVQAGGSLRLSCAASGFTFGRYVMGWYRQAPGKERELVAGINQSGGRTNYADSVKGRFTISRDNAKNTVYLQMNSLKPEDTAVYYCAALRSWRKTGGAQRYWYDYWGQGTQVTVSS”, the “polyreactivity (PSR sort gate)” value was “high polyreactivity”.

Take “QVQLVESGGGLVQAGGSLRLRCAASGITLLNYAMGWYRQAPWKERELVAAISWSGGRTYYADSVKGRFTMSRDNAKNTDYLHMNSLNPQDTAVYYCAAARGVNSYGYWGQGTQVTVSS”: the “polyreactivity (PSR sort gate)” value is recorded as “high polyreactivity”.

In the case of “QVQLVESGGGLVQAGGSLRLSCAASGRIFYTYAMGWYRRAPGKERELVAAIRISGVRTYYADSVKGRFTISRDNAKNTVYLQMNSLKPEDTAVYYCAADSYGDRMDYWGQGTQVTVSS”, the “polyreactivity (PSR sort gate)” value is “high polyreactivity”.

As to “QVQLVESGGGLVQAGGSLRLSCAASGRTFYYNTMGWYRQAPGKERELVASITSGSSTYYADSVKGRFTISRDNAKNTVYLQMNSLKPEDTAVYYCAVYRRYSVKYHYGYWGQGTQVTVSS”, the “polyreactivity (PSR sort gate)” value is recorded as “high polyreactivity”.

Consider “QVQRVESGGGLVQAGGSLRLRCAASGRTFGYYAMGWYRHAPGKERVLVAAINSRGGSTYYADPVKGRFTISRDNAKNTVYLQMNSLKPEDTAVYYCAKRWCSYGSYSLYDYWGQGTQVTVSS”, for which the “polyreactivity (PSR sort gate)” value is given as “high polyreactivity”.

In the case of “QVQLVESGGGLVQAGGSLRLSCAASGSTLYYYAMGWYRQAPGKERELVAAITYSGGNTYYADSVKGRFTISRDNAKNTVYFQMNSLKPEDTAVYYCAADDWSSDYIRYEYWGQGTQVTVSS”, the “polyreactivity (PSR sort gate)” value was “low polyreactivity”.

With “QVQLVESGGGLVQAGGSLRLSCAASGSTFYLYTMGWYRQAPGKERELVAAISRSGGSTRYADSVKGRFTISRDNAKNTVYLQMNSLKPEDTAVYYCAARSTVYPRPHERDYWGQGTQVTVSS”, the “polyreactivity (PSR sort gate)” value is on record as “high polyreactivity”.

With “QVQLVESGGGLVQAGGSLRLSCSASGIIFYFYAMGWYRQAPGKERELVAAISDDGVSTDYADSVKGRFTISRDNAKNTVYLQMNSLKPEDTAVFYCNARYSGYLRLDYWGQGTQVTVSS”, the “polyreactivity (PSR sort gate)” value is given as “low polyreactivity”.

Regarding “QVQLVESGGGLVQAGGSLRLSCAASGSTFASYAMGWDRQAPGKERELVAAITDSGGSTYYADSVKGRFTISRDNAKNTVYLQMNSLKPEDTAVYYCAAYGPYFSYHDYDYWGQGTQVTVSS”, the “polyreactivity (PSR sort gate)” value is “low polyreactivity”.

With “QVQLVESGGGLVQAGGSLRLICAASGSTFSSYAMGLYIQAPGKEREFVAAINTDGGSTYYADSVKGRFTISRDNAKNTVYLQMNSLKPEDTAVYYCAADDISLAAHFDSWGQGTQVTVSS”, the “polyreactivity (PSR sort gate)” value is reported as “low polyreactivity”.

Regarding “QVQLVESGGGLVQARGSLRLSCAATGRTFQIYAMGWYRQAPGKERELVAAISSGGRTNYADSVKGRFTISRDNAKNTVYLQMNSLKPEDTAVYYCAKRWARPGMDYWGQGTQVTVSS”, the “polyreactivity (PSR sort gate)” value is recorded as “high polyreactivity”.

Take “QVQLVESGGGLVQAGGSLRLSCAASGFTFYGYAMGWYRQAPGKERELVAAINSAGRTYYADSVKGRFTISRDNAKNTVYLQMNSLKPEDTAVYYCASKYVRGHGYWGQGTQVTVSS”: the “polyreactivity (PSR sort gate)” value is reported as “high polyreactivity”.

“QVQLVESGGGLVQAGGSLRLSCASSGRTFYSYVMGWYRQAHGKERELVAGISKRGGRTYYADSVKGRFTISRDNAKNTVYLEMYSLKPEDTAVYFCADDFPHTYWTFDFDYWGQGTQVTVSS”: the “polyreactivity (PSR sort gate)” value is given as “high polyreactivity”.

“QVQLVESGGGLVQAGGSLRLSCAASGRIFRYYVMGWYRQAPGKERELVATITSGGSTNYADSVKGRFTISRDNAKNTVYLQMYSLKPEDTAVYYCARGTSTCTYYWYGYWGQGTQVTVSS”: the “polyreactivity (PSR sort gate)” value is given as “low polyreactivity”.

For the sequence “QVQLVESGGGLVQAGGSLRLSCAASGSTFPANAMGWYRPAPGKERELVATSSWSGGRTYYADSVKGRFTISRDNAKNTVDLQMNSLKPEDTAVYYCAKGYYWLSTYGDSRYGYWGQGTQVTVSS”, the “polyreactivity (PSR sort gate)” value is recorded as “high polyreactivity”.

Regarding “QVQLVESVGGLVQAGGSLRLSCAASGRIFYRYGMGWYRQAPGKERELVASITRGGSTYYADSVKGRFTISRDNAKNTVYLQMNSLKPEDTAVYYCATKSSAGYDYWGQGTQVTVSS”, the “polyreactivity (PSR sort gate)” value is on record as “low polyreactivity”.

Take “QVQLVESGGGLVQAGGSLRLSCAASGSILWHYAMGWYRQAPGKERELVAAISGSGRTNYADSVKGRFTISRDNAKNTVYLQMNSLKPEDTAVYYCARVHGTSESKYYYWGQGTQVTVSL”: the “polyreactivity (PSR sort gate)” value is on record as “low polyreactivity”.

Regarding “QVQLVESGGGLVQAGGSLRLSCAASGRIFQYYTMGWSRQAPGKERELVAAITRSGGSTYYADSVKGRFTISRDNAKNTVYLQMNSLKPEDTAVYYFNADTRVKLPWYYTFDYLGQGTQVTVSS”, the “polyreactivity (PSR sort gate)” value is recorded as “low polyreactivity”.

In the case of “QVQLVESGGGLVQAGGSLRLSCAASGIIFWTYTMGWYRQAPGKERELVAAISSGGSTKYADSVKGRFTISRDNAKNTVYLQMNSLKPEDTAVYYCAAYSAWYGYDYWGQGTQVTVSS”, the “polyreactivity (PSR sort gate)” value is “low polyreactivity”.

“QVQLVESGGGLVQAGGSLRLSCAPSGSIFRGYAMGWYRQAPGKERELVAAISSGGSTYYADSVKGRFTISRDNAKNTVDLQMNSLKPEDTAVYYCATSTYAYRRISYYSWGQCTQVTVSS”: the “polyreactivity (PSR sort gate)” value is “high polyreactivity”.

With “QVQLVESGGGLVQAGGSLRLSCAASGIIFYDYAMGWYREAPGKERVLVGAISRSGGSTYYADSVKGRFTISRDNAKYTVYLQMNCLKPEDTAVYYCNAKYPFRKKYYYWGQGTQVTVAS”, the “polyreactivity (PSR sort gate)” value is “high polyreactivity”.

Take “QVQLVESGGGLVQAGGSLRLSCAASGSTFFRYAMGWNRQAPGKERELVATITGGGRTNYADSVKGRFTISRDNAKNTVYLQMNTLKPEDTAVYYCAAYGYVWALRLRYVTYYYWGQGTQVTVSS”: the “polyreactivity (PSR sort gate)” value is “high polyreactivity”.

For “QVQLVESGGGLVQAGGSLRLSCAASGSIFGPNAMGWYRQAPGKERELVAAITNGGRTNYADSVKGRFTISRDNAKNTVYLQMNSLKPEDTAVYYCNKARYGTDDYDYWGQGTQVTVSS”, the “polyreactivity (PSR sort gate)” value is “low polyreactivity”.

As for “QVQLVESGGGLVQAGGSLRLSCAASGRIFIYNAMGWYRQAPGKERELVAAISSGGDTYYADSVKGRFTISRDNAKNTVYLQMNSLKPEDSAVYYCAATFVVKGTRFGYWGQGTQVTVSS”, the “polyreactivity (PSR sort gate)” value is “high polyreactivity”.

Take “QVQLVESGGGLVQAGGSLRLSCAASGITFNFYAMGWYRQAPGKERELVAAITQSGGSTYYADSVKGRFTISRDNAKNTVYLQMNSLKPEDTAVYYCAAARTGHMYYWGQGTQVTVSS”: the “polyreactivity (PSR sort gate)” value was “high polyreactivity”.

For “QVQLVESGGGLVQAGGSLRLSCAASGSTFPRYAMGWYRQAPGKERELVASITSDGGSTYYADSVKGRFTISRDNAMNTVYLQLNSLKPEDTAVYYCNKVTYRGYRRYGYWGQGTQVTVSS”, the “polyreactivity (PSR sort gate)” value was “high polyreactivity”.

Take “QVQLVESGGGLVQAGGSLRLSCAASGSIFTKYAMGWYIQAPGKEREFVAAITLSGGSTYYADSVKGRFTISRDNAKNTVYLQMNSLKPEDTAVYYCNAAYTYVTAWYYYWGQGTQVTVSS”: the “polyreactivity (PSR sort gate)” value is given as “high polyreactivity”.

Take “QVQLVESGGGLVQAGGILRLSCAASGILVYNAMGWYIQAPGTERVLVAAISARGGRTYYADSVKGRFTISRDNAKNTVNLQMNSLKPEDTPVYYCATLETTGVNYWGQGTQVTVSS”: the “polyreactivity (PSR sort gate)” value is recorded as “high polyreactivity”.

On to “QVQLVESGGGLVQAGGSLRLSCAASGSTFRGYAMGWYRQAPGKDRELVATISGSDGTTYYADSVQGRFTISRDNAKKTVYLQMNSLKPEDTAVYFCAAGETFEMYYWGQGTQVTVSS”, for which the “polyreactivity (PSR sort gate)” value is “low polyreactivity”.

With “QVQLVESGGGLVQEGGRLRLSCAASGRIFWDNDMGWYRQAPGKERELVAAISRRGGSTSYADSVKGRFTISRDNAKNTVYLQMNSLKPEDTAVFYCNVRTRWTRVRRYDYWGQVTQVTVSS”, the “polyreactivity (PSR sort gate)” value is listed as “high polyreactivity”.

On to “QVQLQESGVGLVQAGGSLGCAASGNISTRSEMGWYRQAPGKEREFVATINSGGITNYADSVKGRFTISRDNAKNTVYLRMNSLKPEDTAVYYREVYGYFSDPYDYWGQGTQVTVSS”, for which the “polyreactivity (PSR sort gate)” value was “low polyreactivity”.

“QVQLVESGGGLVQAGGSLRLSCAASGSTFSAYAMGWYRQAPGKERELVAAITRSGGSTYYADSVKGRFTISRDNAKNTVYLQMNSLKPEDTAVYYCAVRGYLLYYPPYKYEYWGQGTQVTVSS”: the “polyreactivity (PSR sort gate)” value is “high polyreactivity”.

Consider “QVQLHESGGGLVQAGGGLRLSCAASGSISSTGFMGWYRQAPGKEREPVAAIAPGTTTYYADSVKGRFTISRDNAINTVYLQMNSLRPEDTAVYYCAVFTDNRVAFLYWGQGTQVTVSS”, for which the “polyreactivity (PSR sort gate)” value is “low polyreactivity”.

As to “QVQLVESGGGLVQAGGSLRLSCAASGYTFVIYAMGWYRQAPGKERELVAAITTIGGRTYYADSVKGRFTISRDNAKNTVYLQMNSLKPEDTAVYYCAADIRSYRLYDGGYWGQGTQVTVSS”, the “polyreactivity (PSR sort gate)” value is on record as “low polyreactivity”.

As for “QVQLVESGGGLVQAGGSLRLSCAASGRIIGYNAMGWYRQAPGKERELVAAIDYTGGSTYYADSVKGRFTISLDNAKNTVYLQMNSLKPEDTAVYYCAKDRTTPWEEDDYWGQGTQVTVSS”, the “polyreactivity (PSR sort gate)” value is on record as “low polyreactivity”.

For the sequence “QVQLVESGGGLVQAGGSLRLSCAASGFTLVKYVMVWYMQAPGKEREFVATIRRRGGNTYYADSVKGRFTISRDNAKNTVYLQMNSLKPEDTAVYYCAAKKRSDLRTGDMEYWGQGTQVTVSS”, the “polyreactivity (PSR sort gate)” value is given as “high polyreactivity”.
